Test results reported in patent publication US20120231006A1 (Amgen, published 2012).
Positions count from the first letter of the chain named.

B1: mAb 2D2.1 (antibody, human IgG2, lambda, V domains shown)
VH: QVQLQQWGAGLLKPSETLSLTCAVYGGSFSGYYWSWIRQPPGKGLEWIGEIDHSGRINYNPALKSRLTISVDTSKNQFSLKLSSVTAADTAVYYCARAGSGGYEDWFDPWGQGTLVTVSS
VL: QSVLTQPPSVSGAPGQRVTISCTGSSSNIGAGYNVHWYQQFPRTDPKLLIYVYNIRPSGVPDRFSGSRSGTSASLAITGLQTEDEADYYCQSYDSSLSGVVFGGGTKLTVLG
notes: fully human IgG2 lambda, Campaign 1; also called mAb 2D.1
B2: mAb 2C1.1 (antibody, human IgG2, lambda, V domains shown)
VH: B1 VH with R56S, I57T
VL: B1 VL
notes: fully human IgG2 lambda, Campaign 1; tested hybridoma-purified and recombinant; also called anti-hOrai1 mAb 2C1.1

Columns and labels:
[1] = molecular target: T1, mOrai1-hOrai1 ECL2 (VIV) protein (human/mouse chimera, UniProt Q8BWG9 1-304 (mouse entry)); assay: FACS, 293EBNA, RFI-POC grade
T1 construct: also called Ch
T1 sequence (Q8BWG9 other isoform, or with tags, fused parts or gaps): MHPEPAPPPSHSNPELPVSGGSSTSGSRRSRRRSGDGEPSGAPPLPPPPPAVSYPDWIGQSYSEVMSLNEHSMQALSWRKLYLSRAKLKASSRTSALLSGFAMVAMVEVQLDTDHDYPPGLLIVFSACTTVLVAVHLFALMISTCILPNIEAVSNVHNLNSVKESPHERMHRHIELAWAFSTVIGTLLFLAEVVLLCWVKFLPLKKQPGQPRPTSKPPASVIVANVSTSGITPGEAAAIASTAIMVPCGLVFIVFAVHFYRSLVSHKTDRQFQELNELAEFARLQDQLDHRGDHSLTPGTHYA
Source text: (§1) FIG. 16A-D illustrates the results of FACS analysis showing binding to the indicated mOrai1-hOrai1 ECL2 chimeric mutants expressed on the surface of HEK-293-EBNA cells. Transfected cells were stained first with recombinant monoclonal antibodies then counter-stained with a secondary phycoerythrin-labeled goat (“Gt”) anti-human (“Hu”) IgG F(ab′)₂ antibody fragment and visualized using FACS. In FIG. 16B and FIG. 16D, The values of Relative Fluorescence Intensity as Percent of Control (RFI-POC) are calculated from the relative fluorescence intensity geometric mean (Geo Mean). The geometric mean is an average calculated by multiplying a series of numbers and taking the nth root where n is the number of numbers in the series. It is a statistical average of a set of transformed numbers often used to represent a central tendency in a highly variable data set that minimizes the effects of extreme values.
(§2) Table 11A and Table 11B feature a schematic representation of the POC data from FIG. 16B and FIG. 16D, respectively, where the binding results are recorded as (+++) denoting binding POC from 40% to 100%, (++) for POC of 5% to less than 40%, (+) for POC from 1% to less than 5% and (−) as lack of binding with POC less than 1%.

[2] = molecular target: T2, mOrai1-hOrai1 ECL2 chimeric protein (human/mouse chimera, UniProt Q8BWG9 1-304 (mouse entry)); assay: FACS, 293EBNA, RFI-POC grade
T2 construct: mouse Orai1 with human ECL2; also called Ch
T2 sequence (Q8BWG9 other isoform, or with tags, fused parts or gaps mutant): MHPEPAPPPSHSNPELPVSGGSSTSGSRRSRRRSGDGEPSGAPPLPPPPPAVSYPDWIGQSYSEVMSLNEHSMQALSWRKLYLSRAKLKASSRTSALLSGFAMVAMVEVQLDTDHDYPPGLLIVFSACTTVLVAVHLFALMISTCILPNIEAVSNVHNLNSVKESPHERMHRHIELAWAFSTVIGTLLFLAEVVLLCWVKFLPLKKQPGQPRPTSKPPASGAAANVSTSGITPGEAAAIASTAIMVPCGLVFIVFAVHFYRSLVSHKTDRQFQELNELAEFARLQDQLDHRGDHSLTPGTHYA
Source text: as §1, §2

[3] = molecular target: T3, mOrai1-hOrai1 ECL2 (HSD) protein (human/mouse chimera, UniProt Q8BWG9 1-304 (mouse entry)); assay: FACS, 293EBNA, RFI-POC grade
T3 construct: also called Ch
T3 sequence (Q8BWG9 other isoform, or with tags, fused parts or gaps): as the sequence (Q8BWG9 other isoform, or with tags, fused parts or gaps mutant) above, with V226H, T228D counted along it
Source text: as §1, §2

[4] = molecular target: T4, hOrai1-mOrai1 ECL2 (RPTSKPPA) protein (human/mouse chimera, UniProt Q96D31 1-301); assay: FACS, 293EBNA, RFI-POC grade; design: concentration or dose not given beside the values
T4 construct: also called Ch
T4 sequence (Q96D31 other isoform, or with tags, fused parts or gaps): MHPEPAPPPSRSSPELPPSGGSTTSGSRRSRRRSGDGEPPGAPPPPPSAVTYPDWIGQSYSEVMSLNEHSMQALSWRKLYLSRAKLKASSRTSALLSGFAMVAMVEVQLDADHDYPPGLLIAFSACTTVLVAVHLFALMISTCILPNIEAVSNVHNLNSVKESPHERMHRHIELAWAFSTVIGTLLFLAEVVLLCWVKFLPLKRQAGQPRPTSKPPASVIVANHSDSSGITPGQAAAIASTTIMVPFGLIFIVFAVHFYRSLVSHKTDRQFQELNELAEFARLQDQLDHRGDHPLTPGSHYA

[5] = molecular target: T5, hOrai1-mOrai1 ECL2 (…) protein (human/mouse chimera, UniProt Q96D31 1-301); assay: FACS, 293EBNA, RFI-POC grade; design: concentration or dose not given beside the values
T5 construct: also called Ch
T5 sequence (Q96D31 other isoform, or with tags, fused parts or gaps): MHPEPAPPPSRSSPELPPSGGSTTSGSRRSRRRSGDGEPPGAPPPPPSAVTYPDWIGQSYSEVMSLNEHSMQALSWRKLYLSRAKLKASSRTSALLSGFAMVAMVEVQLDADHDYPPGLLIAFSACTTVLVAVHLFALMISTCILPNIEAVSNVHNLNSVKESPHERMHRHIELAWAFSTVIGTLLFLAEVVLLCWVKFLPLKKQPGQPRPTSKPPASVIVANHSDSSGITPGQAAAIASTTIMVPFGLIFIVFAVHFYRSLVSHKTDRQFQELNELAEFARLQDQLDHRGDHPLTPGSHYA

[6] = molecular target: T6, hOrai1-mOrai1 ECL2 (…) protein (human/mouse chimera, UniProt Q96D31 1-301); assay: FACS, 293EBNA, RFI-POC grade; design: concentration or dose not given beside the values; remark: listed apart in the source
T6 construct: also called Ch
T6 sequence (Q96D31 other isoform, or with tags, fused parts or gaps): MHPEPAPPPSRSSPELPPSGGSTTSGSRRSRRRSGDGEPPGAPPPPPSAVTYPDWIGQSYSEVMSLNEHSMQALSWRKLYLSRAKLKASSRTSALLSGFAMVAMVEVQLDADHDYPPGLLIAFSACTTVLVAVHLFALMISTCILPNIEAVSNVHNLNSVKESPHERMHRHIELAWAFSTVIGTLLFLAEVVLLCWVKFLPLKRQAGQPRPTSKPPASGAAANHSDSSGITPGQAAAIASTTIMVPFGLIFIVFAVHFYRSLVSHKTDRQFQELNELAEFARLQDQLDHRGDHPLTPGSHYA

[7] = molecular target: T2, mOrai1-hOrai1 ECL2 chimeric protein; assay: FACS, 293EBNA, RFI-POC grade; design: concentration or dose not given beside the values
[8] = molecular target: T7, hOrai1-mOrai1 ECL2 (SKPPA) protein (human/mouse chimera, UniProt Q96D31 1-301); assay: FACS, 293EBNA, RFI-POC grade; design: concentration or dose not given beside the values
T7 construct: also called Ch
T7 sequence (Q96D31 other isoform, or with tags, fused parts or gaps): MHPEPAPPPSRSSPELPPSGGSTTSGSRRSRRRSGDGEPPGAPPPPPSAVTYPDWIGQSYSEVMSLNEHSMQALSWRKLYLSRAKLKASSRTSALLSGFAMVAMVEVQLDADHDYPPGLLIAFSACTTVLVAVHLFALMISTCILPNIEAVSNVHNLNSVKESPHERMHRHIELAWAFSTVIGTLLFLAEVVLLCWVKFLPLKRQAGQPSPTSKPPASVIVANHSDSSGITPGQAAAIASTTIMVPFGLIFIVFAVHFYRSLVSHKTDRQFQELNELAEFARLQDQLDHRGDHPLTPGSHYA

[9] = molecular target: T8, hOrai1-mOrai1 ECL2 (…) protein (human/mouse chimera, UniProt Q96D31 1-301); assay: FACS, 293EBNA, RFI-POC grade; design: concentration or dose not given beside the values; remark: listed apart in the source
T8 construct: also called Ch
T8 sequence (Q96D31 other isoform, or with tags, fused parts or gaps): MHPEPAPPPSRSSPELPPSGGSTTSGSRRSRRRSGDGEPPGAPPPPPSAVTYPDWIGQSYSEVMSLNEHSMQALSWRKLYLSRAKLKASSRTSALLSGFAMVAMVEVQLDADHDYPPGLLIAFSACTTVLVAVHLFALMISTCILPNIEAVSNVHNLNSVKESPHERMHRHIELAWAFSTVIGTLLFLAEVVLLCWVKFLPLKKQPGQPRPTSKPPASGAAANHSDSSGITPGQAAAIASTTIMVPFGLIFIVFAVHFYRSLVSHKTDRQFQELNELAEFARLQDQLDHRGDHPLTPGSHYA

human Orai1 [10] = molecular target: T9, human Orai1 (human, UniProt Q96D31 1-301); assay: FACS Kd, AM1-CHO/hOrai1/hSTIM1-YFP cells
T9 construct: on AM1-CHO/hOrai1/hSTIM1-YFP, AM1/hOrai1, HEK-293 transfectants, endogenous on Jurkat and blood cells; in Westerns from cell lysates; also called hOrai1; CRACM1
T9 sequence (Q96D31 whole entry): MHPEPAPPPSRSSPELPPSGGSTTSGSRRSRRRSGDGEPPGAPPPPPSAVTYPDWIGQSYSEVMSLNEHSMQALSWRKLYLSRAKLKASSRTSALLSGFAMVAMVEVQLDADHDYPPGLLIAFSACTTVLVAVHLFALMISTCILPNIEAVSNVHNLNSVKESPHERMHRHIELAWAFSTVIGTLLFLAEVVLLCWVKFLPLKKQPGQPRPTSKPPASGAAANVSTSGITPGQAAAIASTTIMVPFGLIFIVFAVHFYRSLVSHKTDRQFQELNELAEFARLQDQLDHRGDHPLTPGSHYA
Procedure: The equilibrium plates were centrifuged at 500 g for 3 minutes and cell pellets were washed twice with 200 μL of ice cold FACS buffer (1×D-PBS+2% FBS). The cells were then incubated with a secondary antibody, goat anti-human Fc Cy5 at 5 μg/mL and 100 μL per well for 1 h on ice in the dark. Following the incubation, the cells were washed twice with 200 μL of ice-cold FACS buffer before flow cytometry analysis. The GeoMean values gated on live cell population measure the bound [Ab]. The inverse of the GeoMean values that reflects theoretical free [Ag] in the equilibrium solution was then calculated. The inverse values of the GeoMean read were used in KinExA® Pro software for analysis and Kd calculation for each antibody. The free [Ag] measure was plotted against the starting concentration of titrating component and from these plots at two different cell concentrations the Kd was obtained from curve fitting using n-curve analysis in KinExA Pro software. […] Shown in Table 14 (below) are the equilibrium dissociation constant (Kd) values of invented mAbs determined by FACS Kd measurement.

human Orai1 [11] = molecular target: T9, human Orai1; assay: cell-based or functional assay
[12] = molecular target: T10, mOrai1-hOrai1 ECL2 (KPPAE) protein (human/mouse chimera, UniProt Q8BWG9 1-304 (mouse entry)); assay: flow cytometry on HEK-293 cells transfected with the chimera (loss of binding experiment)
T10 construct: also called Ch
T10 sequence (Q8BWG9 other isoform, or with tags, fused parts or gaps): as the sequence (Q8BWG9 other isoform, or with tags, fused parts or gaps mutant) above, with S215K, K216P, P218A, A219E counted along it

[13] = molecular target: T11, mOrai1-hOrai1 ECL2 (SPTKPPAE) protein (human/mouse chimera, UniProt Q8BWG9 1-304 (mouse entry)); assay: as above
T11 construct: also called Ch
T11 sequence (Q8BWG9 other isoform, or with tags, fused parts or gaps): as the sequence (Q8BWG9 other isoform, or with tags, fused parts or gaps mutant) above, with R212S, S215K, K216P, P218A, A219E counted along it

[14] = molecular target: T12, mOrai1-hOrai1 ECL2 (…) protein (human/mouse chimera, UniProt Q8BWG9 1-304 (mouse entry)); assay: as above
T12 construct: also called Ch
T12 sequence (Q8BWG9 other isoform, or with tags, fused parts or gaps): as the sequence (Q8BWG9 other isoform, or with tags, fused parts or gaps mutant) above, with R212S, S215K, K216P, P218A, A219E, G221V, A222I, A223V counted along it

[15] = molecular target: T13, mOrai1-hOrai1 ECL2 (…) protein (human/mouse chimera, UniProt Q8BWG9 1-304 (mouse entry)); assay: as above; remark: listed apart in the source
T13 construct: also called Ch
T13 sequence (Q8BWG9 other isoform, or with tags, fused parts or gaps): as the sequence (Q8BWG9 other isoform, or with tags, fused parts or gaps mutant) above, with R212S, S215K, K216P, P218A, A219E, G221V, A222I, A223V, V226H, T228D counted along it

[16] = molecular target: T14, mOrai1-hOrai1 ECL2 (…) protein (human/mouse chimera, UniProt Q8BWG9 1-304 (mouse entry)); assay: as above; remark: listed apart in the source
T14 construct: also called Ch
T14 sequence (Q8BWG9 other isoform, or with tags, fused parts or gaps): as the sequence (Q8BWG9 other isoform, or with tags, fused parts or gaps mutant) above, with K206R, P208A, R212S, S215K, K216P, P218A, A219E counted along it

human Orai1 [17] = molecular target: T9, human Orai1; assay: cell-based or functional assay; remark: listed apart in the source
human Orai1 [18] = molecular target: T9, human Orai1; assay: KinExA, AM1-CHO/hOrai1/hSTIM1-YFP cells
Procedure: Each equilibrium sample set was read in triplicate on the KinExA machine. For low [Ab] equilibrium samples 4 mL was run of each sample in triplicate. For high [Ab] equilibrium samples 300 μL was run of each sample in triplicate. […] For each equilibrium sample the free [Ab] would be detected by first running the coated beads through the flow cell, then after quick wash with the running buffer (1×PBS pH7.4+1% BSA+0.05% Sodium Azide) the equilibrium samples were passed through the beads followed by a quick wash with the running buffer. Then the secondary detection Ab, Gt anti Hu (H+ L) Cy5, was run through the flow cell at 1 μg/mL and 1000 μL per run. The KinExA voltage output signal was then used in KinExA software to calculate the Kd values for each antibody. From the plots at two different initial total [Ab] concentrations the Kd was obtained from curve fitting using n-curve analysis in KinExA Pro software (Sapidyne Instruments Inc., Boise Id.).

Binder	POC (percent of control, FACS Geo Mean relative to Ch. 1) [1]	POC (percent of control, FACS Geo Mean relative to Ch. 1) [2]	POC (percent of control, FACS Geo Mean relative to Ch. 1) [3]	percent of control (POC) of FACS Geo Mean [4]	percent of control (POC) of FACS Geo Mean [5]	percent of control (POC) of FACS Geo Mean [6]	percent of control (POC) of FACS Geo Mean [7]	percent of control (POC) of FACS Geo Mean [8]	percent of control (POC) of FACS Geo Mean [9]	Kd (human Orai1 [10])	IC50, NFAT-mediated luciferase assay (FIG. 6B) (human Orai1 [11])	IC50, NFAT-mediated luciferase assay (FIG. 6C) (human Orai1 [11])	binding result [12]	binding result [13]	binding result [14]	binding result [15]	binding result [16]	IC50 IFN-γ, whole blood Donor A (human Orai1 [17])	IC50 IFN-γ, whole blood Donor B (human Orai1 [17])	IC50 IL-2, whole blood Donor A (human Orai1 [17])	further results
B1	40 to 100%	40 to 100%	40 to 100%	40 to 100%	40 to 100%	40 to 100%	40 to 100%	5 to 40%	40 to 100%	0.0098 nM	2.8 nM	2.7 nM	no binding	no binding	no binding	no binding	no binding	1.98 nM	2.06 nM	1.31 nM	IC50 IL-2, whole blood Donor B (human Orai1 [17]): 1.16 nM; Kd (human Orai1 [18]): 0.099 nM
B2	40 to 100%	40 to 100%	40 to 100%	40 to 100%	40 to 100%	40 to 100%	40 to 100%	5 to 40%	40 to 100%	0.52 nM	4.4 nM	1.8 nM	no binding	no binding	no binding	no binding	no binding	17.1 nM	2.67 nM	5.23 nM	IC50 of ICRAC current block, whole-cell patch clamp, HEK-293/hOrai1/hSTIM1 BB6.3 (human Orai1 [11]): 55.9 nM; IC50 IL-2, whole blood Donor B (human Orai1 [17]): 1.44 nM; Kd (human Orai1 [18]): 0.04 nM
